PMC6572788
Values belong to the binder of their own block, whether it stands above or below them.

Experiments:
[1] = biological target: wt-CFTR fused to enhanced green fluorescent protein (His10-SUMO*-CFTR^FLAG-EGFP), PKA phosphorylated (human) (UniProt P13569)
[2] = biological target: stabilized version of human CFTR (stab-CFTR: 2PT/ΔRI/R1048A_1172X) (human) (UniProt P13569)
[3] = biological target: wt-CFTR fused to enhanced green fluorescent protein (His10-SUMO*-CFTR^FLAG-EGFP), PKA phosphorylated (human) (UniProt P13569); remark: listed apart in the source

wt-CFTR fused to enhanced green fluorescent protein (His10-SUMO*-CFTR^FLAG-EGFP), PKA phosphorylated (human), sequence (P13569 whole entry, the tested form may be a part): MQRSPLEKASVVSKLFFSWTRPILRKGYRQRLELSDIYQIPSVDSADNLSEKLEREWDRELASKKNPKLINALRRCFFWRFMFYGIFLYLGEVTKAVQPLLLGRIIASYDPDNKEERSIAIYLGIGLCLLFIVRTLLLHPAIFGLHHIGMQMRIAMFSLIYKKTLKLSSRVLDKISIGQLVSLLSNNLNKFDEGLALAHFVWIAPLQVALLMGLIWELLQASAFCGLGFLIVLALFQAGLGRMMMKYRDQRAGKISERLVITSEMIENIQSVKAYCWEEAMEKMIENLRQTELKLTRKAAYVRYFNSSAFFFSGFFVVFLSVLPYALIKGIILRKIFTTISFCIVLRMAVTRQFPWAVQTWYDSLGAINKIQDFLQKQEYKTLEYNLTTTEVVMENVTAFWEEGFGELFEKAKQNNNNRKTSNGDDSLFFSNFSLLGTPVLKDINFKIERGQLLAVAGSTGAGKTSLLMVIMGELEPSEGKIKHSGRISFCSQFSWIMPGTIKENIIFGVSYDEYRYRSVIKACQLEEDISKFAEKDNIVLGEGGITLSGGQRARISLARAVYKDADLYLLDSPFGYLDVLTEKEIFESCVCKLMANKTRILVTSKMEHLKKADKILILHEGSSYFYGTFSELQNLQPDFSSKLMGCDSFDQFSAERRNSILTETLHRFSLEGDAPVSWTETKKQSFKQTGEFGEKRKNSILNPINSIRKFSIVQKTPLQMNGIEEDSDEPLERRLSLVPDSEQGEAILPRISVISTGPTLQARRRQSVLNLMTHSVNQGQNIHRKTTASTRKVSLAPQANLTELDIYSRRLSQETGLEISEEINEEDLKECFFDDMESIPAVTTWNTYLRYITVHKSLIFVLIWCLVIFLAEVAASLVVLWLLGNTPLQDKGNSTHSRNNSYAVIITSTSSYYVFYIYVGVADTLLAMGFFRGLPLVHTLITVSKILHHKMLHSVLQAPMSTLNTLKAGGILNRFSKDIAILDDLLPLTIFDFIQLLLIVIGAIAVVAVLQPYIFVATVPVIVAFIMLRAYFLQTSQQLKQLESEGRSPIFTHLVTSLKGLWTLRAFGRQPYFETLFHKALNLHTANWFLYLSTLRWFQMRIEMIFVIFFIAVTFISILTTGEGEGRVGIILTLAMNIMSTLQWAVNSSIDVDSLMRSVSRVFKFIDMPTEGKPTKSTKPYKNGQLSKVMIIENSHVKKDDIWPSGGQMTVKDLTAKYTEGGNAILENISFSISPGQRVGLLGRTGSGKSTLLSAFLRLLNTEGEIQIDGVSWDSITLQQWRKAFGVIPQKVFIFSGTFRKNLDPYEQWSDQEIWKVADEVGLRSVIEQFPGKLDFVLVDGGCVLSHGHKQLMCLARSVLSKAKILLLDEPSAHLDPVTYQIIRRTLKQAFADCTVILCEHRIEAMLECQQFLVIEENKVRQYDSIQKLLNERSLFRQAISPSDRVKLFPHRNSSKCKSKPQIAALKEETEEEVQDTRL
stabilized version of human CFTR (stab-CFTR: 2PT/ΔRI/R1048A_1172X) (human), sequence (P13569 other isoform, or with tags, fused parts or gaps, stated change not applied): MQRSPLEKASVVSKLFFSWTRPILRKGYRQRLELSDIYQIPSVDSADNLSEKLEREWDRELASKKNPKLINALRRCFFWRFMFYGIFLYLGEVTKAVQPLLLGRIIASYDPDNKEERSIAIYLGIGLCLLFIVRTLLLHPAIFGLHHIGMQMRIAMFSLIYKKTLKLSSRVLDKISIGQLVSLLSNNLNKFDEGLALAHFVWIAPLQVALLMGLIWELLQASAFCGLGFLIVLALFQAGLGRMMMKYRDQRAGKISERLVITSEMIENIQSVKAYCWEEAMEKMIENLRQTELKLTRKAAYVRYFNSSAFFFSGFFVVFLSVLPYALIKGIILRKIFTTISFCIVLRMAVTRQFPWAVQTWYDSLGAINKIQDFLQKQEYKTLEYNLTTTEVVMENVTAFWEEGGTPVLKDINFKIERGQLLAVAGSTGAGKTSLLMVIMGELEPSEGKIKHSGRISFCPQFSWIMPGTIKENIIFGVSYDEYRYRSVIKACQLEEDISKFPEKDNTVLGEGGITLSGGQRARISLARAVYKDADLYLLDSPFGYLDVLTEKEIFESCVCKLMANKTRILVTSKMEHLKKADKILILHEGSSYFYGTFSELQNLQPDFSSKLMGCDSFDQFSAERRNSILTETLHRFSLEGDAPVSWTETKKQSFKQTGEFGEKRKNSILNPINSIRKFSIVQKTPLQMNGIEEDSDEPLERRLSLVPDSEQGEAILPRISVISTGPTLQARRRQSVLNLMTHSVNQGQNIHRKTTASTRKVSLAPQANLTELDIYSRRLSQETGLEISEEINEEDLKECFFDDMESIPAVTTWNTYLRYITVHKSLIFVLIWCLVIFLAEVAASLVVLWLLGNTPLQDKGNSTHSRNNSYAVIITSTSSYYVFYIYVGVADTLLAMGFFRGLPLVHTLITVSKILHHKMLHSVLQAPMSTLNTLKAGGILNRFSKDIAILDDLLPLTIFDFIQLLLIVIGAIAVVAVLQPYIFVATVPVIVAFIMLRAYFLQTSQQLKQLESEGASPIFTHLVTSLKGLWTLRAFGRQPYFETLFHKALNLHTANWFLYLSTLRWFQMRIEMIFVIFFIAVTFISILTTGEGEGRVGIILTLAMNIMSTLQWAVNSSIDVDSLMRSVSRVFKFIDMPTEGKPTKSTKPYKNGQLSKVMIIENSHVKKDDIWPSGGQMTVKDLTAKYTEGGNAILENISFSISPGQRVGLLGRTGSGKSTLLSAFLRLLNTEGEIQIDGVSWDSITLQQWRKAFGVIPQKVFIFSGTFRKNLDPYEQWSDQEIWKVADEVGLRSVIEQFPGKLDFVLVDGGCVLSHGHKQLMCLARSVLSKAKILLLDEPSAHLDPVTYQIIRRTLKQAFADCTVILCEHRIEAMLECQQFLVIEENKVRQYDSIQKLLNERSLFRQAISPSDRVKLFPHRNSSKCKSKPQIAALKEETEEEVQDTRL

shift of the temperature of thermal inactivation of the ATPase activity of wt-CFTR (30 min heat challenge; 15 µM G3a) [1]: 3.1 °C
B1: nanobody G3a (VHH)
VHH: QVQLQESGGGLVQAGGSLRLSCTASGRAFSWYVMGWFRQAPGKEREFVATVSGNGSRRDYADSVKGRFTISRDNAKNTVYLQMNSLKPEDTAVYYCAASSTYYYTDPEKYDYWGQGTQVTVSS

thermostabilization of stab-CFTR by nanoDSF (~1:2 molar ratio) [2]: 8 °C
B2: nanobody T4 (VHH)
VHH: QVQLQESGGGLVQAGGSLRLSCAASGSTFAIIAMGWYRQAPGKQRELVAVISTGDTRYADSVKGRFTISRDNAKNTVYLQMDSLRPEDTAVYYCNAAVQVRDYRNYWGQGTQVTVSS

thermostabilization of stab-CFTR by nanoDSF (~1:2 molar ratio) [2]: 8 °C
ATPase activity of PKA-phosphorylated wt-CFTR (25 nM) with 1 µM nanobody, percent of the activity without nanobody [3]: 50%
B3: nanobody T2a (VHH)
VHH: QVQLQESGGGLVQAGGSLRLSCAASGSIFRIDAMGWYRQAPGKQRELVAHSTSGGSTDYADSVKGRFTISRDNAKNTVYLQMNSLKPEDTAVYYCNADVRTRWYASNNYWGQGTQVTVSS

ATPase activity of PKA-phosphorylated wt-CFTR (25 nM) with 1 µM nanobody, percent of the activity without nanobody [3]: 30%
B4: nanobody T27 (VHH)
VHH: QVQLQESGGGLEQPGGSLRLSCATSGVIFGINAMGWYRQAPGKQRELVATFTSGGSTNYADFVEGRFTISRDNAKNTVYLQMNGLRPEDTAVYYCHATVVVSRYGLTYDYWGQGTQVTVSS

ATPase activity of PKA-phosphorylated wt-CFTR (25 nM) with 1 µM nanobody, percent of the activity without nanobody [3]: 50%
shift of the temperature of thermal inactivation of the ATPase activity of wt-CFTR (30 min heat challenge) [1]: 7 °C
B5: nanobody D12 (VHH)
VHH: QVQLQESGGGLVQAGSSLRLACAATGSIRSINNMGWYRQAPGKQRGMVAIITRVGNTDYADSVKGRFTISRDNAKNTVYLQMNSLKPEDTATYYCHAEITEQSRPFYLTDDYWGQGTQVTVSS
